According to patent US20030211537A1:

How the values were obtained:
[1] = target: H278N mutant mouse delta opioid receptor (mouse) (UniProt P32300); assay: competition vs 3H-naltrindole, COS-7 membranes
[2] = target: rat µ opioid receptor (rat) (UniProt P33535); assay: competition vs [3H]DAMGO, COS-7 membranes
[3] = target: mouse kappa opioid receptor (mORK1) (mouse) (UniProt P33534); assay: competition vs [3H]U-69,593, COS-1 membranes

Row | Ki [2] [µM] | IC50 [3] [µM] | Substance | other results
1 |  |  | D-Ala2-deltorphin II (peptide) | Ki [1]: 0.004 µM
2 | 0.03 |  | PLO17 (peptide) | 
3 |  | 0.019 | [D-Ala2, F5Phe4]Dynorphin (1-13)NH2 (from UniProt P01213 207-219) (peptide) | 
4 | 0.00033 |  | dermorphin (peptide) | 
5 | 0.056 |  | morphiceptin (peptide) | 
6 |  | 0.0002 | [D-Ala2, F5Phe4]Dynorphin (1-17)NH2 (from UniProt P01213 207-223) (peptide) | 
